± gives the standard error. For some of these results: Fewer inactive variants are shown than the library holds.
B1: glmS ribozyme (parent)
chain: AUAAAAGCGCCAGAACUACAGAAAUGUAGUUGACGAGGAGGAGGUUUAUCGAAUUUUCGGCGGAUGCCUCCAAA

What was measured:
Details in all cases: with glucosamine-6-phosphate
glucosamine-6-phosphate [1] = variants of: B1; test: kcat; higher = faster cleavage; RNA array
Procedure, shortened: (§1)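 On sequenced MiSeq chips, barcoded ribozyme variants were made in situ by E. coli RNA polymerase and followed at 37 °C through a hybridised Cy3 probe. Glucosamine-6-phosphate was flowed in at 40 μM to 10 mM in HEPES/KCl/Mg(OAc)2 buffer. Exponential fits to normalised per-tile medians gave kobs, and weighted Michaelis–Menten fits gave kcat and KM.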

glucosamine-6-phosphate [2] = variants of: B1; test: KM; higher = weaker cofactor use; RNA array
Procedure, shortened: as §1

glucosamine-6-phosphate [3] = variants of: B1; test: self-cleavage kobs at 640 uM GlcN6P; higher = faster cleavage; RNA array
Procedure, shortened: as §1

glucosamine-6-phosphate [4] = variants of: B1; test: self-cleavage kobs at 2500 uM GlcN6P; higher = faster cleavage; RNA array
Procedure, shortened: as §1

glucosamine-6-phosphate [5] = variants of: B1; test: self-cleavage kobs at 10000 uM GlcN6P; higher = faster cleavage; RNA array
Procedure, shortened: as §1

glucosamine-6-phosphate [6] = variants of: B1; test: self-cleavage kobs at 40 uM GlcN6P; higher = faster cleavage; RNA array
Procedure, shortened: as §1

glucosamine-6-phosphate [7] = variants of: B1; test: self-cleavage kobs at 160 uM GlcN6P; higher = faster cleavage; RNA array
Procedure, shortened: as §1

| Variant | kcat (glucosamine-6-phosphate [1]) [s⁻¹] | KM (glucosamine-6-phosphate [2]) [µM] | self-cleavage kobs at 640 uM GlcN6P (glucosamine-6-phosphate [3]) [s⁻¹] | self-cleavage kobs at 2500 uM GlcN6P (glucosamine-6-phosphate [4]) [s⁻¹] | self-cleavage kobs at 10000 uM GlcN6P (glucosamine-6-phosphate [5]) [s⁻¹] | self-cleavage kobs at 40 uM GlcN6P (glucosamine-6-phosphate [6]) [s⁻¹] | self-cleavage kobs at 160 uM GlcN6P (glucosamine-6-phosphate [7]) [s⁻¹] |
| --- | --- | --- | --- | --- | --- | --- | --- |
| G13U A15G G32A C70G | 9.35e-05 ± 2.2e-06 | 405 ± 40 | 5.48e-05 ± 1.7e-05 | 8.14e-05 ± 1.6e-05 | 8.98e-05 ± 1.9e-05 |  |  |
| A15G G29U C50G | 3.72e-05 ± 6.3e-06 |  |  | 5.06e-05 ± 2.4e-05 |  |  |  |
| C16U G60A | 1.69e-05 ± 4.6e-06 |  |  | 2.66e-05 ± 1.3e-05 |  | < 1e-05 |  |
| C10G C58U | < 1e-05 |  | < 1e-05 |  | < 1e-05 | < 1e-05 |  |
| G32A G60C | < 1e-05 | 183 ± 55 |  |  | < 1e-05 |  |  |
| A42C C70G | 4.99e-05 ± 4.3e-06 | 1410 ± 550 |  | 3.37e-05 ± 7.9e-06 | 4.32e-05 ± 6.7e-06 |  |  |
| U31G A39U | 0.0136 ± 0.0028 | 3520 ± 930 | 0.00183 ± 0.00041 | 0.00485 ± 0.00084 | 0.0106 ± 0.0011 | 0.000179 ± 1.6e-05 | 0.000492 ± 7.3e-05 |
| U57C C71A | 2.47e-05 ± 4e-06 |  |  | 2.96e-05 ± 1e-05 |  |  |  |
| A12G G63C | < 1e-05 |  |  |  | < 1e-05 |  | < 1e-05 |
| A39G C67G | 0.00311 ± 0.00098 | 602 ± 300 | 0.00174 ± 0.00035 | 0.00535 ± 0.0012 | 0.00223 ± 0.00066 | 0.000189 ± 4.5e-05 | 0.000603 ± 0.00015 |
| C11A G29A | 3.97e-05 ± 1.6e-06 | 2550 ± 350 |  |  | 3.17e-05 ± 9.4e-06 |  |  |
| A53C U55C | 0.0014 ± 0.00029 | 1150 ± 480 | 0.00052 ± 9.2e-05 | 0.00148 ± 0.00029 | 0.00116 ± 0.00017 |  | 0.00015 ± 4e-05 |
| U55C U57G | 3.92e-05 ± 2.9e-06 | 840 ± 320 |  | 2.98e-05 ± 1.5e-05 |  | < 1e-05 | < 1e-05 |
| C58A G62A | < 1e-05 |  | < 1e-05 |  |  | < 1e-05 |  |
| A33G U57G | 1.21e-05 ± 4.2e-06 |  |  |  | < 1e-05 |  |  |
| G41U G66U | 5.98e-05 ± 1.9e-06 | 582 ± 89 | 3.02e-05 ± 1.5e-05 | 5.12e-05 ± 1.5e-05 | 5.53e-05 ± 1.3e-05 |  | < 1e-05 |
| U46G C71G | 0.000535 ± 0.00017 |  | 0.000392 ± 7.6e-05 | 0.000849 ± 0.00013 | 0.000435 ± 5.5e-05 | 4.15e-05 ± 1.4e-05 | 5.99e-05 ± 1.8e-05 |

| Variant | kcat (glucosamine-6-phosphate [1]) [s⁻¹] | KM (glucosamine-6-phosphate [2]) [µM] | self-cleavage kobs at 640 uM GlcN6P (glucosamine-6-phosphate [3]) [s⁻¹] | self-cleavage kobs at 2500 uM GlcN6P (glucosamine-6-phosphate [4]) [s⁻¹] | self-cleavage kobs at 10000 uM GlcN6P (glucosamine-6-phosphate [5]) [s⁻¹] | self-cleavage kobs at 40 uM GlcN6P (glucosamine-6-phosphate [6]) [s⁻¹] | self-cleavage kobs at 160 uM GlcN6P (glucosamine-6-phosphate [7]) [s⁻¹] |
| --- | --- | --- | --- | --- | --- | --- | --- |
| U46G C71U | 0.00721 ± 0.0015 | 1750 ± 550 | 0.00219 ± 0.00026 | 0.00497 ± 0.00059 | 0.00576 ± 0.00058 | 0.00018 ± 1.7e-05 | 0.000349 ± 8.8e-05 |
| U47G U54G | 0.0073 ± 0.0022 | 724 ± 320 | 0.00367 ± 0.00086 | 0.0063 ± 0.0018 | 0.00685 ± 0.0015 | 0.00053 ± 8.3e-05 | 0.000915 ± 0.00023 |
| C16G U55A | 0.00566 ± 0.0022 |  | 0.000819 ± 0.00014 | 0.00327 ± 0.00047 | 0.00463 ± 0.00062 | 0.00015 ± 1.9e-05 | 0.000313 ± 6.3e-05 |
| A39C G44A | 3.56e-05 ± 1.2e-05 |  |  | 5.47e-05 ± 1.1e-05 | 2.63e-05 ± 8.1e-06 |  |  |
| A64G C71G | 0.000386 ± 8.2e-05 |  | 0.000495 ± 0.00013 | 0.000271 ± 2.9e-05 | 0.000398 ± 5.8e-05 |  | 6.24e-05 ± 2e-05 |
| G41C A53G | 0.000359 ± 9.5e-05 |  | 0.000157 ± 3.2e-05 | 0.000193 ± 4.2e-05 | 0.000438 ± 7.1e-05 |  | 5.35e-05 ± 1.4e-05 |
| A12C A15U | 0.00259 ± 0.00075 | 1430 ± 600 | 0.00126 ± 0.0002 | 0.0012 ± 0.00021 | 0.00271 ± 0.00031 | 7.96e-05 ± 8.9e-06 | 0.000208 ± 3.6e-05 |
| C10U A39U | 1.59e-05 ± 5e-07 | 6310 ± 460 | < 1e-05 |  |  | < 1e-05 | < 1e-05 |
| U30A A33U | 5.67e-05 ± 3.2e-06 | 4010 ± 660 |  |  | 4.04e-05 ± 8.7e-06 | < 1e-05 | < 1e-05 |
| G41A U47A | 0.000635 ± 9.4e-05 | 282 ± 86 | 0.000573 ± 0.00011 | 0.000608 ± 0.00018 | 0.00055 ± 0.0001 | 7.36e-05 ± 1.6e-05 |  |
| G32C A39U | 6.89e-05 ± 3.3e-06 | 9270 ± 880 |  |  | 3.58e-05 ± 6.1e-06 |  |  |
| C11A C61U C67G | < 1e-05 |  |  |  |  |  |  |
| A39C U57C | 1.89e-05 ± 2.4e-06 |  |  | 1.97e-05 ± 9.4e-06 |  |  |  |
| C11A U31G | 0.000375 ± 9.9e-05 | 3900 ± 1600 | 4.58e-05 ± 1.1e-05 | 0.000179 ± 3.7e-05 | 0.000253 ± 5.7e-05 |  |  |
| A14C G40U | 0.000718 ± 9.8e-05 | 2800 ± 790 | 0.000144 ± 2.2e-05 | 0.000352 ± 6.1e-05 | 0.000555 ± 5.2e-05 |  |  |
| G63A C70G | 3.27e-05 ± 9.7e-06 |  | 4.94e-05 ± 1.3e-05 | 3.19e-05 ± 9.4e-06 |  |  |  |
| U30C C58U | 3.26e-05 ± 1.4e-05 |  | < 1e-05 |  |  |  |  |

Source: the supplement of paper PMC7125110
